Measured values published in article PMC6349404.

Target: recombinant human Osteolectin (human) (UniProt Q9Y240)
Assay: ELISA; microtiter well binding assay; plates coated with 10 nM recombinant human Osteolectin, Pro-Collagen 1α or BSA overnight at 4°C, blocked with 10 mg/ml BSA; 6xHis tagged integrins in TBS (50 mM Tris-Cl pH 7.5, 150 mM NaCl) with 1 mM MnCl2; bound integrin detected with anti-His tag antibody and HRP secondary, OD 450 nm

Chain of recombinant human Osteolectin (human) (Q9Y240 22-323): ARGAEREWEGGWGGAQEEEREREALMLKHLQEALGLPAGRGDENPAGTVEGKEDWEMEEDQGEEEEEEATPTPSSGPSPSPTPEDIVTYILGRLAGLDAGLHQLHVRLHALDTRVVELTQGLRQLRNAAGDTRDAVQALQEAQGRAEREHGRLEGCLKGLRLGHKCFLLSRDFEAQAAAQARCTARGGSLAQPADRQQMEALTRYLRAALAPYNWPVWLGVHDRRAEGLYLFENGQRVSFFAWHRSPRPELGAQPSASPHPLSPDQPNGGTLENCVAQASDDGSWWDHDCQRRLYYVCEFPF

Substance	Kd [nM]
recombinant human integrin αVβ1 (from UniProt P06756 31-1048; P05556 21-728) (complex)	> 100
recombinant human integrin αIIbβ3 (from UniProt P08514 32-1039; P05106 27-718) (complex)	> 100
recombinant human integrin αVβ3 (from UniProt P06756 31-1048; P05106 27-718) (complex)	> 100
